Test results taken from patent US20130224224A1 (Boehringer Ingelheim, published 2013).

T1: cynomolgus CX3CR1 (cynomolgus, UniProt P49238 1-355 (human entry))
T1 construct: transiently expressed on HEK293T cells; also called cyCX3CR1; cyno CX3CR1
T1 chain: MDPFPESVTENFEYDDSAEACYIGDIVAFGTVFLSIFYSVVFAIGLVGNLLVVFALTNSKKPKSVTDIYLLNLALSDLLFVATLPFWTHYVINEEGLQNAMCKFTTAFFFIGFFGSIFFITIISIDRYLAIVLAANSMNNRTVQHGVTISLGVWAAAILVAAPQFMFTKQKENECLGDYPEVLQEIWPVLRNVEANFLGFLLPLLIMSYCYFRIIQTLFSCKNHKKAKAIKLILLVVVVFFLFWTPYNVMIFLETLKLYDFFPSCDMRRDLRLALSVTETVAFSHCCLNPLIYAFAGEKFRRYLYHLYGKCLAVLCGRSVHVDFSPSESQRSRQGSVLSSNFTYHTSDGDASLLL

T2: human CX3CR1 (human, UniProt P49238 1-355)
T2 construct: overexpressed on CHO, BA/F3 or HEK293T cells; also called huCX3CR1; hCX3CR1
T2 sequence: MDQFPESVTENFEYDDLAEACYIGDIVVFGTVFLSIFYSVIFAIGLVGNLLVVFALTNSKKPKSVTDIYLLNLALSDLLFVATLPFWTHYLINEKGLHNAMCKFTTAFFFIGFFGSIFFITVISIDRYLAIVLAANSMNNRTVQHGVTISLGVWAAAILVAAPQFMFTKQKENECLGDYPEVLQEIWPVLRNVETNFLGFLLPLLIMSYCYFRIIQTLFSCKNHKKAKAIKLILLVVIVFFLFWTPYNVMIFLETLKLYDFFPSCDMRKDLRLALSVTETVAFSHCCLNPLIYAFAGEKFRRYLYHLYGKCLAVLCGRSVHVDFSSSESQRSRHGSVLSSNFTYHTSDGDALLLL


What was measured:
cynomolgus CX3CR1 [1] = target: T1, cynomolgus CX3CR1; assay: FACS binding on cynomolgus CX3CR1 cells, anti-c-myc detection
Procedure: (§1) Initially, a FACS based binding setup was used to evaluate the cynomolgus cross reactivity. For this, the VHHs were incubated with the respective cells for 30 minutes at 4° C. followed by three wash steps and subsequently incubated with the detection reagents. As detection, a mouse anti-cmyc antibody (Serotec, MCA2200) followed by a goat anti-mouse antibody coupled to PE (Jackson 115-116-071) was used, each incubation for 30 minutes at 4° C., followed by three wash steps.

human CX3CR1 [2] = target: T2, human CX3CR1; assay: competition FACS, BA/F3-huCX3CR1; competitor alexa647-labeled 66B02
Source text: A competitive binding experiment was setup in order to determine whether the VHHs bind overlapping epitopes on CX3CR1. For this, the VHH 66B02 labeled with alexa647 was used in a competition FACS on the BA/F3 cells expressing huCX3CR1. Representative VHHs from the three functional families were used as competitors for the binding of the labeled 66B02.

human CX3CR1 [3] = target: T2, human CX3CR1; assay: periplasmic extract, A647-fractalkine competition FACS, CHO-huCX3CR1
Summary of the method: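 Periplasmic VHH extracts competed with Alexa647-fractalkine (EC30, 1 nM; 3 nM initially) for binding to live or frozen CHO cells overexpressing human CX3CR1, 1 h at 4 C. FACS read on intact, PI-negative cells; percent block derived using no-VHH, irrelevant-VHH and excess cold fractalkine controls.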

human CX3CR1 [4] = target: T2, human CX3CR1; assay: cell-based or functional assay
human CX3CR1 [5] = target: T2, human CX3CR1; assay: A647-fractalkine competition FACS, BA/F3-huCX3CR1
Source text: (§2) Periplasmic extracts were screened in a human CX3CR1/human Fractalkine FACS competition assay to assess the blocking capacity of the expressed VHHs. Human CX3CR1 was presented on CHO cells overexpressing CX3CR1. Both a setup using cells harvested from an actively growing culture and a setup using frozen cells was used. As a detection reagent labeled fractalkine was used (R&D Systems, Minneapolis, Minn., USA) labeled with alexa647 (A647-Fractalkine) at a degree of labeling of 1. To setup the assay, first a titration series of the labeled fractalkine was performed on the CHO-huCX3CR1 cells in order to determine the EC50 value for binding. Initially screening was performed at a higher concentration of fractalkine (3 nM) to increase the assay robustness. To increase the sensitivity of the screening to a maximum, the EC30 concentration (1 nM) was chosen for subsequent screening. In brief 50 μl of periplasmic extract was added to 6 nM labeled fractalkine (50 μ;) and 200 000 CHO-huCX3CR1 cells. After one hour incubation at 4 C, cells were washed three times before read out was performed on a FACS Array (Becton Dickinson). First a gate was set on the intact cells as determined from the scatter profile. Next, dead cells were gated out by their fluorescence profile from the PI stain (Sigma, St Louis, US). The fluorescence profile from the alexa647 label was determined for each sample and used for calculation of blocking capacity. As controls, conditions were taken along where there was no VHH present in the peri extract or a known irrelevant VHH and samples were included where excess cold fractalkine was included. For each sample the percentage block was determined using the control samples to determine the assay window.
(§3) The blocking capacity towards the ligand fractalkine of the VHHs was evaluated in a human CX3CR1 competition FACS as outlined in Example 4. Either CHO-huCX3CR1 cells, BA/F3-huCX3CR1 cells or transiently transfected HEK293T cells were used. The amount of labeled ligand used in the different competition setups was also varied. The IC₅₀ values for VHHs blocking the interaction of human fractalkine to human CX3CR1 are depicted in Table 19.

human CX3CR1 [6] = target: T2, human CX3CR1; assay: FACS binding on human CX3CR1 cells, anti-c-myc detection
Procedure: as §1

human CX3CR1 [7] = target: T2, human CX3CR1; assay: A647-fractalkine competition FACS, CHO-huCX3CR1
Source text: as §2, §3

cynomolgus CX3CR1 [8] = target: T1, cynomolgus CX3CR1; assay: FACS binding, cynomolgus against human CX3CR1
Procedure: as §1

human CX3CR1 [9] = target: T2, human CX3CR1; assay: A647-fractalkine competition FACS, HEK293-huCX3CR1
Summary of the method: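 VHHs compete with Alexa647-fractalkine for CX3CR1 on CHO, BA/F3 or transiently transfected HEK293T cells, with the labeled-ligand amount varying between setups. After 1 h at 4 °C and washing, PI-negative intact cells were gated by flow cytometry. IC50 follows from percentage block, with the window set by no/irrelevant-VHH and excess cold fractalkine controls.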

cynomolgus CX3CR1 [10] = target: T1, cynomolgus CX3CR1; assay: A647-fractalkine competition FACS, HEK293T cynomolgus CX3CR1
Summary of the method: (§4)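 VHHs competed with Alexa647-labelled human fractalkine (degree of labelling 1, at its EC30 concentration) for human or cynomolgus CX3CR1 transiently expressed in HEK293T cells, with transfections matched by ligand binding. A647 fluorescence of intact, PI-negative cells was read by flow cytometry. % block was taken against no-VHH and excess cold fractalkine controls, giving IC50 values.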

cynomolgus CX3CR1 [11] = target: T1, cynomolgus CX3CR1; assay: A647-fractalkine competition FACS, cynomolgus against human CX3CR1
Summary of the method: as §4

human CX3CR1 [12] = target: T2, human CX3CR1; assay: A647-fractalkine competition FACS, HEK293T human CX3CR1
Summary of the method: as §4

| EC50 (cynomolgus CX3CR1 [1]) [nM] | % block (human CX3CR1 [2]) [%] | IC50 (human CX3CR1 [2]) [nM] | % block (human CX3CR1 [3]) [%] | % block, fractalkine induced chemotaxis (human CX3CR1 [4]) [%] | % block (human CX3CR1 [5]) [%] | IC50 (human CX3CR1 [5]) [nM] | EC50 (human CX3CR1 [6]) [nM] | % block (human CX3CR1 [7]) [%] | IC50 (human CX3CR1 [7]) [nM] | ratio (cynomolgus/human EC50) (cynomolgus CX3CR1 [8]) | % block (human CX3CR1 [9]) [%] | IC50 (human CX3CR1 [9]) [nM] | % block (cynomolgus CX3CR1 [10]) [%] | IC50 (cynomolgus CX3CR1 [10]) [nM] | IC50, fractalkine induced chemotaxis (human CX3CR1 [4]) [nM] | ratio (cynomolgus/human IC50) (cynomolgus CX3CR1 [11]) | % block (human CX3CR1 [12]) [%] | IC50 (human CX3CR1 [12]) [nM] | Binder |
| --- | --- | --- | --- | --- | --- | --- | --- | --- | --- | --- | --- | --- | --- | --- | --- | --- | --- | --- | --- |
| 14 | 100 | 2.3 | 53.1 | 17 | 71 | 2.8 | 1.5 | 33 | 1.8 | 9 | – | – | – | – | – | – | – | – | CX3CR1BIIPMP18E6 (VHH, family 13; also called 18E06; CX3CR1BII18E06; not shown: C-terminal c-myc and His6 tags) VHH: KVQLVESGGGLVQPGGSLRLSCATSGTIFSNNAMGWYRQAPGKKRDLVASISSSGSTNYADSVKGRFTVSRDNDKNTGYLQMNSLKPEDTGVYYCTLDARRGWNTAYWGQGAQVTVSS |
| 30 | – | – | 68.9 | 45 | 81 | 15 | 540 | 78 | 11 | 0.1 | 52 | 23 | 69 | 280 | 50 | 12.3 | 52 | 23 | CX3CR1BIIPMP54A7 (VHH, also called 54A07; not shown: C-terminal c-myc and His6 tags) VHH: EVQLVESGGGSVQAGESLRLSCAASGTIFSSNAMAWYRQAPGKQRDLVAGINSVDITKYADSVKGRFTISRDNAKNTVYLQMNSLKPEDTAVYYCTSDPRRGWNTRYWGQGTQVTVSS |
| 110 | – | – | 93.8 | 84 | 100 | 4 | 35 | 104 | 2.1 | 3.3 | 96 | 6.8 | 94 | 67 | 80 | 9.85 | 96 | 6.8 | CX3CR1BIIPMP54A12 (VHH, also called CX3CR1BII54A12; not shown: C-terminal c-myc and His6 tags) VHH: EVQLVESGGGSVQAGESLRLSCAASGSIFSSNAMAWYRQAPGKQRDLVAVINSVGITKYADSVKGRFTISGDNAKNTVYLQMNSLKPEDTAVYYCTSDARRGWDTRYWGQGTQVTVSS |
